Experimental findings from paper PMC4422687 are described below.

The assay deals with soluble HA-tagged canine SLAM (UniProt Q95MM9). The settings on record: parent: est. 100; read off a plot.

Regarding “CDV H-wt, full length attachment protein (hemagglutinin) H of canine distemper virus strain A75/17, FLAG-tagged D132A”, the percent of parent was 98 % to control.

Turning to “CDV H-wt, full length attachment protein (hemagglutinin) H of canine distemper virus strain A75/17, FLAG-tagged D135A”, the percent of parent was 130 % to control.

Consider “CDV H-wt, full length attachment protein (hemagglutinin) H of canine distemper virus strain A75/17, FLAG-tagged E130A”, for which the percent of parent was 54 % to control.

For “CDV H-wt, full length attachment protein (hemagglutinin) H of canine distemper virus strain A75/17, FLAG-tagged F131A”, the percent of parent was 93 % to control.

Regarding “CDV H-wt, full length attachment protein (hemagglutinin) H of canine distemper virus strain A75/17, FLAG-tagged F133A”, the percent of parent is 160 % to control.

In the case of “CDV H-wt, full length attachment protein (hemagglutinin) H of canine distemper virus strain A75/17, FLAG-tagged H137A”, the percent of parent is 86 % to control.

Regarding “CDV H-wt, full length attachment protein (hemagglutinin) H of canine distemper virus strain A75/17, FLAG-tagged L136A”, the percent of parent is 70 % to control.

“CDV H-wt, full length attachment protein (hemagglutinin) H of canine distemper virus strain A75/17, FLAG-tagged N126A”: the percent of parent was 94 % to control.

For the substance “CDV H-wt, full length attachment protein (hemagglutinin) H of canine distemper virus strain A75/17, FLAG-tagged N128A”, the percent of parent is 84 % to control.

Regarding “CDV H-wt, full length attachment protein (hemagglutinin) H of canine distemper virus strain A75/17, FLAG-tagged P127A”, the percent of parent is 61 % to control.

For the substance “CDV H-wt, full length attachment protein (hemagglutinin) H of canine distemper virus strain A75/17, FLAG-tagged R129A”, the percent of parent was 110 % to control.

As to “CDV H-wt, full length attachment protein (hemagglutinin) H of canine distemper virus strain A75/17, FLAG-tagged R134A”, the percent of parent is 110 % to control.

As to “CDV H-wt, full length attachment protein (hemagglutinin) H of canine distemper virus strain A75/17, FLAG-tagged W138A”, the percent of parent is 98 % to control.
